System: MS2 coat protein
Assay: apparent KD of MS2 coat protein; designed switch direction (-1 OFF switch, 1 ON switch): 1; higher = weaker reporter binding
Outline: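 Designed RNA switches were transcribed on Illumina chips by stalled E. coli RNA polymerase and titrated with SNAP-549-labelled MS2 coat protein from 0.7 or 1.5 nM, doubling to 3 µM. Step length ran from 0.8–1.5 h at the lowest concentration to 10–20 min at the highest. The apparent KD is the median over clusters for each design, from curve-fitted normalised cluster fluorescence.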

[1] = input ligand: microRNA oligo, concentration not stated
[2] = Eterna round: R95, input ligand: microRNA oligo, concentration not stated
[3] = Eterna round: R95, input ligand: FMN 200 uM
[4] = Eterna round: R95, input ligand: none

In the case of “GUGGCGGGUUGAGGAUAUUGGUUGCCUAUGUUUAACAUGAGGAUCACCCAUGUGGGUUGCGGUUUCGAGAAGGUAGGUUGCUGG [salish99_SSNG2_r04_046] (Eterna round: R96, puzzle: Same State NG 2)”, the “apparent KD of MS2 coat protein” value (input ligand: FMN 200 uM) is reported as 228 nM, the “apparent KD of MS2 coat protein” value [1] is reported as 109 nM and the “apparent KD of MS2 coat protein” value (input ligand: none) is reported as 188 nM.
With “GUGGGACAUGAGGAUCACCCAUGUGGGAGGGAACGAGGAUAUGUGAGGAGCGAGAAGUGAACAGAAGGCGUGGUUG [JR_SS1_Sub023] (puzzle: Same State 1)” the “apparent KD of MS2 coat protein” value [2] was 75.3 nM.
For “GUGGUCAGACAUGAGGAUCACCCAUGUGGAAUAAAUAACACACAGGAUAUCUAAUAUAAAAUAUAAGAGAAGGGUGGAUUGGUG (Eterna round: R96, puzzle: Same State NG 3)”, the “apparent KD of MS2 coat protein” value [1] was 202 nM.
With “GUGGUCAGACAUGAGGAUCACCCAUGUGGAAUAAAUAACACACAGGAUAUGUAAUAUAGGAUAUAACAGAAGGGUGGAUUGGUG (Eterna round: R96, puzzle: Same State NG 3)” the “apparent KD of MS2 coat protein” value [1] was 297 nM.
For “GUGGUCAGACAUGAGGAUCACCCAUGUGGAAUAAAUAACGUCAAGGAUAUACAAUAUAGGAUAUAGUAGAAGGUGAGAUUGGUG (Eterna round: R96, puzzle: Same State NG 3)”, the “apparent KD of MS2 coat protein” value [1] was 94.8 nM.
With “GUGGUCAGACAUGAGGAUCACCCAUGUGGAAUAAAUAAGGAAAAGGAUAUUCAAUAUAGGAUAUAGAAGAAGGUUUGGUUGGUG (Eterna round: R96, puzzle: Same State NG 3)” the “apparent KD of MS2 coat protein” value [1] was 73.5 nM.
For “GUGGUCAGACAUGAGGAUCACCCAUGUGGAAUAAAUAAGGAGAAGGAUAUCUAAUAUAGGAUAUAAGAGAAGGUUUGGUUGGUG (Eterna round: R96, puzzle: Same State NG 3)”, the “apparent KD of MS2 coat protein” value [1] was 63.2 nM.
“GUGGUCAGACAUGAGGAUCACCCAUGUGGAAUAAAUAAGGAGAAGGAUAUGAAAUAUAGGAUAUAUCAGAAGGUCUGGUUGGUG (Eterna round: R96, puzzle: Same State NG 3)” was tested, and the “apparent KD of MS2 coat protein” value [1] was 59.9 nM.
With “GUGGUCAGACAUGAGGAUCACCCAUGUGGAAUAAAUAAGGAGAAGGAUAUGCAAUAUAGGAUAUAGCAGAAGGUCUGGUUGGUG (Eterna round: R96, puzzle: Same State NG 3)” the “apparent KD of MS2 coat protein” value [1] was 58.5 nM.
“GUGUAUAGCCUCGAGGAUAUCCUGUAAUGCACAUGAGGAUCACCCAUGUAUGAGCGAGUUUUUUGGGAGAAGGCGAGUUAUCGGU [JR_SS002_Sub1709] (Eterna round: R96, puzzle: Same State 2)” was tested, and the “apparent KD of MS2 coat protein” value [1] was 18 nM.
For “GUGUGUUGCGGGCAGGAUAUGUACUUGAGUACAUGAGGAUCACCCAUGUGCGCCUGUUUCAGGCGACAGAAGGGCCUAUCGCGAC [JL-ss2-3.26 ViennaUCT mod] (puzzle: Same State 2)”, the “apparent KD of MS2 coat protein” value [3] was 121 nM, the “apparent KD of MS2 coat protein” value [2] was 318 nM and the “apparent KD of MS2 coat protein” value [4] was 1340 nM.
For “GUUAAACAUGAGGAUCACCCAUGUAAUAAUAUGGGAGGAUAUCAGAAAUUAUGUAUGAAAUGAGAAGGCCUAAUUG [Mat - Same State 1 - Mod of Eli - D79] (puzzle: Same State 1)”, the “apparent KD of MS2 coat protein” value [3] was 89.8 nM, the “apparent KD of MS2 coat protein” value [2] was 244 nM and the “apparent KD of MS2 coat protein” value [4] was 198 nM.
“GUUAAACAUGAGGAUCACCCAUGUCAUCUAAGUCGAGGAUAUGGGAAUUAAUUAAUUAAACCAGAAGGCGAAAAUU [Mat - Same State 1 - D95] (puzzle: Same State 1)” was tested, and the “apparent KD of MS2 coat protein” value [3] was 59.7 nM, the “apparent KD of MS2 coat protein” value [2] was 756 nM and the “apparent KD of MS2 coat protein” value [4] was 1110 nM.
In the case of “GUUAACUUGAGAGGAUAUGUAGAGGAUCACCCUACAGAAGGCUCUUUGGAGAGGAUAUGUAGAGGAUCACCCUACAGAAGGCUC [pwkr ssNG DX.6] (Eterna round: R96, puzzle: Same State NG 1)”, the “apparent KD of MS2 coat protein” value (input ligand: FMN 200 uM) is reported as 56.5 nM, the “apparent KD of MS2 coat protein” value [1] is reported as 33.7 nM and the “apparent KD of MS2 coat protein” value (input ligand: none) is reported as 25.9 nM.
In the case of “GUUACAUGAGGAUCACCCAUGUAUGUGUGGGAGUAAGUGUCUUAGGAUAUCUAGUAUUUAAUUCAAGAGAAGGAAGAUUGUUGU [JMF's solution 68] (Eterna round: R96, puzzle: Same State NG 3)”, the “apparent KD of MS2 coat protein” value (input ligand: FMN 200 uM) is reported as 118 nM, the “apparent KD of MS2 coat protein” value [1] is reported as 132 nM and the “apparent KD of MS2 coat protein” value (input ligand: none) is reported as 122 nM.

Reference: the supplement of paper PMC9170038
